This assay concerns the target extracellular domain (ECD) of human insulin-like growth factor-1 receptor (hIGF-1R) (human) (UniProt P08069). Nature of the assay: other fluorescence titration.

Experimental findings from PMC9712175 are described below.

Sequence of UniProt P08069 (P08069 741-935): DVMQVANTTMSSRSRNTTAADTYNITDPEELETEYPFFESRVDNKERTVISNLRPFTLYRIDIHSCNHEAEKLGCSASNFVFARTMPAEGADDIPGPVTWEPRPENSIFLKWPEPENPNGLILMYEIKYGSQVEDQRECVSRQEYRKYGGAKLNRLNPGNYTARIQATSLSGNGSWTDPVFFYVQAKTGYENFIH

Broadly, the Kd is the free concentration of one partner at which half of the binding sites on the other are occupied at equilibrium, for simple one-to-one binding. The low end stands for a tighter complex, the high end for a looser complex. The substance “full-length human insulin-like growth factor 1 (hIGF1) (from UniProt P05019 22-118) (ligand)” yielded a Kd of 90 nM.
